The record followed here is doi:10.1101/2024.01.05.574302 (bioRxiv, 2024).

The Kd is the equilibrium constant for the complex coming apart. A high value points to lower affinity.

The labels stand for the following.
T1: gAnkB aa. 1477-1792 (human, UniProt Q01484 1477-1792)
T1 sequence (looked up): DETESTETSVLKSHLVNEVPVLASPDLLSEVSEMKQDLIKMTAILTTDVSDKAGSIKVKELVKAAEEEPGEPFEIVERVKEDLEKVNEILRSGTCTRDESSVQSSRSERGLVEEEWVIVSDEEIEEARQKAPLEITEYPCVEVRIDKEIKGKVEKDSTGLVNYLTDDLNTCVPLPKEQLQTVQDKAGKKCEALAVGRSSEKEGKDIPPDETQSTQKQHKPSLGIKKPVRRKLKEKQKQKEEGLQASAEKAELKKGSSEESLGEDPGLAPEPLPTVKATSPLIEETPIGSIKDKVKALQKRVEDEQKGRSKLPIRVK

B1: ASAP1 SH3 domain (aa. 1083-1147) (domain or fragment, mouse, UniProt Q9QWY8 1083-1147, looked up)
chain: GKNKVRRVKTIYDCQADNDDELTFIEGEVIIVTGEEDQEWWIGHIEGQPERKGVFPVSFVHILSD
B2: mouse ASAP2-SH3 (aa. 896-958) recombinant protein (domain or fragment, UniProt Q7SIG6 896-958, looked up)
chain: SKPKRVKALYNCVADNPDELTFSEGDVIIVDGEEDQEWWIGHIDGEPSRKGAFPVSFVHFIAD

Experiment [1] addresses B1. The experiment is described as follows: ITC.
In a further experiment the target is T1, gAnkB aa. 1477-1792. In words: ITC. (In general: In ITC the heat of successive injections is recorded.)

“Clasp1 (from UniProt Q7Z460 1-1538) (natural protein)”: the Kd in experiment [1] is 8900 nM.

B1: in the experiment with gAnkB aa. 1477-1792, the Kd is ~140 nM.

Take GIKKPVRRKLKE (peptide, UniProt Q01484 1699-1710, looked up) [gAnkB peptide (aa. 1699-1710)]: the dissociation constant Kd in experiment [1] is ~140 nM.

Take GIKKPVERKLKE (peptide, UniProt Q01484 1699-1710, looked up) [gAnkB peptide R1705E]: the “fold weakening of binding against the wild-type gAnkB peptide” value in experiment [1] is ~125 fold.

In the case of GIKKGVRRKLKE (peptide, UniProt Q01484 1699-1710, looked up) [gAnkB peptide P1703G], the “fold decrease of affinity against the wild-type gAnkB peptide” value in experiment [1] was ~3 fold.

GIKEPVRRKLKE (peptide, UniProt Q01484 1699-1710, looked up) [gAnkB peptide K1702E]: in experiment [1], the “fold weakening of binding against the wild-type gAnkB peptide” value is ~120 fold.

Regarding B2, in the experiment with gAnkB aa. 1477-1792, the Kd was ~68 nM.
